T1: CLIP-6Myc-FLAG-TEV-Myc-Drosha (human, UniProt Q9NRR4 1-1374, CLIP-surface 547 or CLIP-surface 488 fluorophore on the CLIP tag)
T1 sequence: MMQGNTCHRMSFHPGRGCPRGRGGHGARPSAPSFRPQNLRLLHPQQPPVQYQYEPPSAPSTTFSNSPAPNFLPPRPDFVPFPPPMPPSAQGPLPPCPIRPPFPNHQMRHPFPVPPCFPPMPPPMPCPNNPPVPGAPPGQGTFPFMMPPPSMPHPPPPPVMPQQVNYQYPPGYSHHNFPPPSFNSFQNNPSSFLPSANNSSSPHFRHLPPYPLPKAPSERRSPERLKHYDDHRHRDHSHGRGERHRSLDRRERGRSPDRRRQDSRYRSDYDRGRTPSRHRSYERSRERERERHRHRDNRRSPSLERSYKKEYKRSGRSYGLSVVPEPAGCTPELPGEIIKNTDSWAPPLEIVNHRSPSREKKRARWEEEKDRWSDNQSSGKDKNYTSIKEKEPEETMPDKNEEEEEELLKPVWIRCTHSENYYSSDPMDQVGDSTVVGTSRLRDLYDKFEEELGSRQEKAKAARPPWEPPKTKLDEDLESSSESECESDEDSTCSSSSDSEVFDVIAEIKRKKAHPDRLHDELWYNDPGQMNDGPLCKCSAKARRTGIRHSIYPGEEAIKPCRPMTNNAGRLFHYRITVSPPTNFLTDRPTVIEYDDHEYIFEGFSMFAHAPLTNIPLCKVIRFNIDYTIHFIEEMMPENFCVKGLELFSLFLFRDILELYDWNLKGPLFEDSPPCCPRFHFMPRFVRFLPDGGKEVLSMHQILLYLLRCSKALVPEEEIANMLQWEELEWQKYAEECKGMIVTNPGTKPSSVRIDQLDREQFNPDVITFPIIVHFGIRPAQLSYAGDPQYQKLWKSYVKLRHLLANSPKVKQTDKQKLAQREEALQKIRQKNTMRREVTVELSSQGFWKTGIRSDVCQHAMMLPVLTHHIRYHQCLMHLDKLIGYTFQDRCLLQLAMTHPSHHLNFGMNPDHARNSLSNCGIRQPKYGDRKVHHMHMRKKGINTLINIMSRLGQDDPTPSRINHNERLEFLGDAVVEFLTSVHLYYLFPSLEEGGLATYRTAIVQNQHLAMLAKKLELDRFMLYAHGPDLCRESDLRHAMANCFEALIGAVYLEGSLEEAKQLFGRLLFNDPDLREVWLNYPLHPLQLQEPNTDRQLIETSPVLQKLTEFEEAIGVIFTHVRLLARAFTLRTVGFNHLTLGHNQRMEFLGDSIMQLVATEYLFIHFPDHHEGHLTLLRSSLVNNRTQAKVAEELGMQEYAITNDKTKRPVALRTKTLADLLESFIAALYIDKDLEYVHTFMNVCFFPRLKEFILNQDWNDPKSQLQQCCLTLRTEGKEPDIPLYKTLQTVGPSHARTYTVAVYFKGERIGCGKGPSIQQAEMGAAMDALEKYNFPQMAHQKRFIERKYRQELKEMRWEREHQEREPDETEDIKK

B1: SNAP-DGCR8 (natural protein)
chain: METDESPSPLPCGPAGEAVMESRARPFQALPREQSPPPPLQTSSGAEVMDVGSGGDGQSELPAEDPFNFYGASLLSKGSFSKGRLLIDPNCSGHSPRTARHAPAVRKFSPDLKLLKDVKISVSFTESCRSKDRKVLYTGAERDVRAECGLLLSPVSGDVHACPFGGSVGDGVGIGGESADKKDEENELDQEKRVEYAVLDELEDFTDNLELDEEGAGGFTAKAIVQRDRVDEEALNFPYEDDFDNDVDALLEEGLCAPKKRRTEEKYGGDSDHPSDGETSVQPMMTKIKTVLKSRGRPPTEPLPDGWIMTFHNSGVPVYLHRESRVVTWSRPYFLGTGSIRKHDPPLSSIPCLHYKKMKDNEEREQSSDLTPSGDVSPVKPLSRSAELEFPLDEPDSMGADPGPPDEKDPLGAEAAPGALGQVKAKVEVCKDESVDLEEFRSYLEKRFDFEQVTVKKFRTWAERRQFNREMKRKQAESERPILPANQKLITLSVQDAPTKKEFVINPNGKSEVCILHEYMQRVLKVRPVYNFFECENPSEPFGASVTIDGVTYGSGTASSKKLAKNKAARATLEILIPDFVKQTSEEKPKDSEELEYFNHISIEDSRVYELTSKAGLLSPYQILHECLKRNHGMGDTSIKFEVVPGKNQKSEYVMACGKHTVRGWCKNKRVGKQLASQKILQLLHPHVKNWGSLLRMYGRESSKMVKQETSDKSVIELQQYAKKNKPNLHILSKLQEEMKRLAEEREETRKKPKMSIVASAQPGGEPLCTVDV
modifications: SNAP-surface Alexa fluor 546 or SNAP-surface Alexa fluor 647 on the SNAP tag
B2: FLAG-SNAP-DGCR8 (natural protein)
chain: B1 chain
modifications: SNAP-surface 546 Alexa fluorophore on the SNAP tag in a portion of the sample

Columns and labels:
[1] = target: T1, CLIP-6Myc-FLAG-TEV-Myc-Drosha; assay: single-molecule immunoprecipitation with subunit counting by photobleaching
[2] = target: the molecule itself; assay: as above
[3] = target: the molecule itself; assay: SEC + other: glycerol gradient centrifugation

Row | Binder | stoichiometry N [1] | stoichiometry N [2] | stoichiometry N [3]
1 | B1 | 2 DGCR8 per Drosha | 2 DGCR8 per complex | –
2 | B2 | – | – | 2 SNAP-DGCR8 per complex

— paper PMC4712668 (RNA, 2016)
